Here are results for three molecules from paper PMC11338637.

For series [1], the target named is Hir complex (Hir1/Hir2/Hir3/Hpc2) (S. cerevisiae) (UniProt P32479). In words: SPR. In general terms: SPR reads the build-up and loss of mass on a sensor chip optically.
The next series addresses ctHir3 (Chaetomium thermophilum, UniProt G0S723 1-2235). In words: fluorescence polarization. (In general: In fluorescence polarisation assays a small probe gives low polarisation when free and higher when bound to something large.)

In series [1], “yeastAsf1/humanH3.3/humanH4 (from UniProt P32447 1-279; P84243 1-136; P62805 1-103) (complex)” displayed a KD1 (heterogeneous ligand model, fast site of weak affinity) of 196 nM and a KD2 (heterogeneous ligand model, slow site of strong affinity) of 18 nM.

For orientation: Kd means the free concentration of one partner at which half of the binding sites on the other are occupied at equilibrium, for simple one-to-one binding. Read a high Kd as weaker binding. In turn, TAGGGAGTAATCCCCTTGGCGG (ssDNA) [ssDNA probe] registered an equilibrium dissociation constant (Kd) in the series with ctHir3 of 531 nM.

AAAACAAAUAUGCAUAUUAUCGAGAGG (ssRNA) [ssRNA probe] displayed a Kd with ctHir3 of 292 nM.
